Ends that are not written are not given here. * marks the point of attachment. Biotin = O=C1N[C@H]2[C@H](CS[C@H]2CCCCC(=O)*)N1
Molecular target: T1, GST-WSB2 WDR (human)
T1 sequence (Q9NYS7 whole entry, looked up): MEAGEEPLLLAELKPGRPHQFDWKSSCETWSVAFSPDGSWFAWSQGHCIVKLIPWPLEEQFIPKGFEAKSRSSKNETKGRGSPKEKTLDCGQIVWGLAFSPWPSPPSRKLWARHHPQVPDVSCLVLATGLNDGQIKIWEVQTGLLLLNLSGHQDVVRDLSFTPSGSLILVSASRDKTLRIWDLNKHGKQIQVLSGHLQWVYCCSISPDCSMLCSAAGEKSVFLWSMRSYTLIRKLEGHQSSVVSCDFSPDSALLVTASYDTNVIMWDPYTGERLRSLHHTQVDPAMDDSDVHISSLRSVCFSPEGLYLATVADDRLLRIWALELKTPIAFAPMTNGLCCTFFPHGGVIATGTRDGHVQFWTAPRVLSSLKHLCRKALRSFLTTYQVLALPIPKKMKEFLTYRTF
Assay: pull-down + far-Western, overlay or dot blot; about 3 ug glutathione beads-bound GST-WSB2 WDR with 1.8 nmol biotin-labeled RelA peptide in 500 ul GST binding buffer, 4°C, 1 h; washed, eluted with 20 mM GSH, denatured, spotted on nitrocellulose; anti-biotin and anti-GST

B1: biotin-labeled K314/315 monomethylated RelA peptide (a.a. 308-320) (peptide)
peptide: Biotin-TFKSIMK(Me)K(Me)SPFSG
In the case of B1, the fold affinity against the unmethylated peptide is reported as 3 to 4 fold.
